Reference: patent publication US20170226213A1 (Daiichi Sankyo, published 2017)
Substitutions are numbered along the chain they refer to.

B1: human anti-FGFR4 antibody U4-6 (antibody, V domains shown)
VH: EVQLLESGGGLVQPGGSLRLSCAASGFTFSDYYMNWVRQAPGKGLEWVSAIGGSGDRTYYADSVKGRFTISRDNSKNTLYLQMNSLRAEDTAVYYCALGGSYFGYWGQGTLVTVSS
VL: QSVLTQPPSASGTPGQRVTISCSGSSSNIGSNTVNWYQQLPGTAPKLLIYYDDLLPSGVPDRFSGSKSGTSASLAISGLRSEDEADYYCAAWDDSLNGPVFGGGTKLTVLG
notes: IgG format
B2: FGFR4 binding Fab U4-1 (Fab, V domains shown)
VH: EVQLLESGGGLVQPGGSLRLSCAASGFTFSRNYMSWVRQAPGKGLEWVSAISGSGGSTYYADSVKGRFTISRDNSKNTLYLQMNSLRAEDTAVYYCARVTSPGAFDIWGQGTLVTVSS
VL: QSVLTQPPSASGTPGQRVTISCSGGTSNIGTNTVNWYQQLPGTAPKLLIYRNNQRPSGVPDRFSGSKSGTSSSLAISGLRSEDEADYYCAAWDDSLNGPYVVFGGGTKLTVLG
B3: FGFR4 binding Fab U4-8 (Fab, V domains shown)
VH: B2 VH with R31S, A50S, S57R, V99M, S101V, P102F, F105A, D106T, I107L
VL: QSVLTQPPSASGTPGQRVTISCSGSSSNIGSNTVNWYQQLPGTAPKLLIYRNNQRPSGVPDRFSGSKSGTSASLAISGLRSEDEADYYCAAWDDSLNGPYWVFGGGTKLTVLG
B4: human anti-FGFR4 antibody U4-2 (antibody, V domains shown)
VH: B2 VH with R31K, N32A, Y33W, V99L, T100Y, P102Y, A104D, I107H
VL: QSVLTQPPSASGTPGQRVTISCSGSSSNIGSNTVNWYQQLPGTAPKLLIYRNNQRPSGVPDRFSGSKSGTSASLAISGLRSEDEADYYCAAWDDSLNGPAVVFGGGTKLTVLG
B5: human anti-FGFR4 antibody U4-1 (antibody, V domains shown)
VH: B2 VH
VL: B2 VL
B6: human anti-FGFR4 antibody U4-3 (antibody, V domains shown)
VH: B2 VH with R31D, N32Y, V37I, A50T, V99L, S101A, P102Y, A104H, F105V, I107S
VL: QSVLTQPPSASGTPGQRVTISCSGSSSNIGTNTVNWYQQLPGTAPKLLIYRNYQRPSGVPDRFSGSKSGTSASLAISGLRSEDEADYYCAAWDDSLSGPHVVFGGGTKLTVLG
B7: human anti-FGFR4 antibody U4-8 (antibody, V domains shown)
VH: B2 VH with R31S, A50S, S57R, V99M, S101V, P102F, F105A, D106T, I107L
VL: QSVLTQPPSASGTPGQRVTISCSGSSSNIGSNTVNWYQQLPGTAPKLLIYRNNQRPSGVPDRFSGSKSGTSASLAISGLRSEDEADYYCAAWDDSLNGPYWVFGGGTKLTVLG
notes: IgG format
B8: FGFR4 binding Fab U4-2 (Fab, V domains shown)
VH: B2 VH with R31K, N32A, Y33W, V99L, T100Y, P102Y, A104D, I107H
VL: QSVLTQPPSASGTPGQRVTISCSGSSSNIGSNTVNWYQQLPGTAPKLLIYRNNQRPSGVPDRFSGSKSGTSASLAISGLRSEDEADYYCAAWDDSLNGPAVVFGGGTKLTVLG
B9: human anti-FGFR4 antibody U4-7 (antibody, V domains shown)
VH: B2 VH with R31D, N32Y, R98T, V99L, T100A, S101T, P102Y, A104P, I107D
VL: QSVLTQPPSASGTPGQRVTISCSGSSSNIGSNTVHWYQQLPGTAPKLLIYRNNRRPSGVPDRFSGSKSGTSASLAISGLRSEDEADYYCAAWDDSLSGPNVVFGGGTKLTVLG
notes: IgG format
B10: FGFR4 binding Fab U4-7 (Fab, V domains shown)
VH: B2 VH with R31D, N32Y, R98T, V99L, T100A, S101T, P102Y, A104P, I107D
VL: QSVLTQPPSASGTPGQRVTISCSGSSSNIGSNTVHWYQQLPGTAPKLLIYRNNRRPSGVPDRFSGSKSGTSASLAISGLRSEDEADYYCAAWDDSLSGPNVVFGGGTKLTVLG
B11: human anti-FGFR4 antibody U4-9 (antibody, V domains shown)
VH: B2 VH with R31D, N32Y, V37I, A50T, V99L, S101A, P102Y, A104H, F105V, I107S
VL: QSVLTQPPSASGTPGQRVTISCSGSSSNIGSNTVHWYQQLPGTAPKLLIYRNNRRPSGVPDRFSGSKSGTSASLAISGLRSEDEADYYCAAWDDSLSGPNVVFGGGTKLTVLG
notes: IgG format
B12: FGFR4 binding Fab U4-5 (Fab, V domains shown)
VH: EVQLLESGGGLVQPGGSLRLSCAASGFTFSSNYMNWVRQAPGKGLEWVAVISYDGSNKYYADSVKGRFTISRDNSKNTLYLQMNSLRAEDTAVYYCVTKSRDFWRGPFDYWGQGTLVTVSS
VL: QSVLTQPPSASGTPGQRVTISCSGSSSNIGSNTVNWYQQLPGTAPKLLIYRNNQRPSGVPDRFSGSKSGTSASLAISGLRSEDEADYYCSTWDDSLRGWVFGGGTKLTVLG
B13: human anti-FGFR4 antibody U4-5 (antibody, V domains shown)
VH: B12 VH
VL: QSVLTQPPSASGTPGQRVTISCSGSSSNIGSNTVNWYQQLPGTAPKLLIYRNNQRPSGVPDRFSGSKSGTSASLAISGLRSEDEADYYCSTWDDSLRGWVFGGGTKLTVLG
notes: IgG format
B14: FGFR4 binding Fab U4-4 (Fab, V domains shown)
VH: EVQLLESGGGLVQPGGSLRLSCAASGFTFSSNYMSWVRQAPGKGLEWVSLISGSGGSTYYADSVQGRFTISRDNSKNTLYLQMNSLRAEDTAVYYCARNTAGFGYFDLWGQGTLVTVSS
VL: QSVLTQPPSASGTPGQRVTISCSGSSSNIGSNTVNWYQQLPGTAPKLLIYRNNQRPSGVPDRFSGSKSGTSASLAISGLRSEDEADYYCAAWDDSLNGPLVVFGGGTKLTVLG

How the values were obtained:
[1] = target: T1, human FGFR4 (FGF receptor 4) on cells (human, UniProt P22455 22-802); assay: flow cytometry titration on Huh-7 cells
T1 construct: whole, on cells; also called hFGFR4
Description: Huh-7 cells (obtained from JCRB Cell Bank) were cultured in DMEM containing 10% FBS under standard conditions at 37° C. and 5% CO₂. Cells were harvested with 5 mM EDTA (in PBS) and 200,000 cells per sample were incubated with indicated anti-FGFR4 antibody (1:3 serial dilution; starting concentration 30 μg/ml) for 30 min at 4° C. After incubation, cells were washed and bound antibody was determined using a Phycoerythrin-labeled anti-human IgG antibody (Jackson Immuno Research). Antibody binding to Huh-7 was measured with a BD Accuri C6 flow cytometer (BD Biosciences, San Jose, Calif.; U.S.A.) and analyzed using the AccuriC6 software. Subsequently, the equilibrium dissociation constant (KD) was determined using Prism (GraphPad Software, La Jolla, Calif., U.S.A.).

[2] = target: T1, human FGFR4 (FGF receptor 4) on cells; assay: cell-based or functional assay
[3] = target: T2, cynomolgus monkey FGFR4 on transfected Hek293 cells (cynomolgus monkey); assay: flow cytometry titration on transfected Hek293 cells
T2 construct: whole, on cells
Description: Hek293 cells were obtained from CLS (Cell Lines Service, Eppelheim; Germany) and cultured in DMEM containing 10%FBS under standard conditions at 37° C. and 5% CO2. On Day 0, cells were seeded at 4×10⁵ cells/10 cm dish. After 24 h, cells were transfected with plasmids coding for FGFR4 from rat, mouse, human or cynomolgus monkey. Cells were allowed to express the proteins for 48 h and were then dissociated from the dish with 5 mM EDTA in PBS followed by incubation with indicated concentrations of anti-FGFR4 antibody U4-3 or GT-13. Binding was determined using a Phycoerythrin-conjugated anti-human IgG antibody (Jackson Immuno Research Europe). Data was acquired with a BD Accuri C6 flow cytometer (BD Biosciences.) and analyzed using the AccuriC6 software. Antibody titrations experiment (starting concentration 10 μg/ml; 1:3 dilution) allowed calculation of the dissociation constants for the antibodies (see table below).

[4] = target: T3, FGFR4 construct with Ig-like domain 1 (amino acids 22-180) on Hek293 cells (UniProt P22455 22-180); assay: flow cytometry on Hek293 cells transfected with the FGFR4 (D1) construct, PE-conjugated anti-human IgG
T3 construct: range 22-180; Expressed on transfected Hek293 cells
Description: Hek293 cells were obtained from CLS and cultured in DMEM containing 10% FBS under standard conditions at 37° C. and 5% CO2. On Day 0, cells were seeded and after 24 h cells were transfected with plasmids coding for FGFR4 containing the indicated domain. Cells were allowed to express the proteins for 48 h and were then dissociated from the dish with 5 mM EDTA in PBS followed by incubation with indicated anti-FGFR4 antibody. Binding was determined using a Phycoerythrin-conjugated anti-human IgG antibody (Jackson Immuno Research Europe). Data was acquired with a BD Accuri C6 flow cytometer (BD Biosciences) and analyzed using the AccuriC6 software.

[5] = target: T4, extracellular domain of human FGFR4 (myc- and His-tagged) (human, UniProt P22455 22-369); assay: ELISA, FGFR4 ECD (myc, His) captured by anti-His antibody
T4 construct: extracellular domain; Captured on the plate by a mouse anti-His tag antibody; also called human FGFR4-His/Myc; FGFR4 ECD; not shown: myc and His tags
Description: (§1) Mouse anti-His tag antibody was obtained from Bio-Rad (Hercules, Calif.; U.S.A.) and coated onto MaxiSorp® flat-bottom 96 well ELISA plates (Sigma, St. Louis, Mo.; U.S.A.) at a concentration of 2 μg/ml. After coating, the extracellular domain of human FGFR4 (myc- and His-tagged) was added at a concentration of 0.01 μg/ml. After removal of unbound protein, indicated antiFGFR4 antibody was added (1:4 serial dilution, starting concentration 10 μg/ml) and binding was finally detected with the AttoPhos® AP Fluorescent Substrate System (Promega) using an alkaline-phosphatase coupled goat anti-human IgG F(ab′) fragment on the Fluostar Omega fluorescent plate reader instrument from BMG Labtech (Ortenberg; Germany). Subsequently, dissociation constants were calculated for U4-3, -5 and -9 using Graph Pad Prism (Table 5).

[6] = target: T1, human FGFR4 (FGF receptor 4) on cells; assay: cell-based or functional assay; remark: listed apart in the source
[7] = target: antigen of the Biacore assay (FGFR4; construct not stated) (UniProt P22455 22-369, limits assumed); assay: Biacore T100, antibody captured by anti-human IgG, antigen injected, bivalent analyte model, KD1, average of 3
Description: Standard amine coupling was applied to prepare a goat anti-human IgG capturing S-CM5 sensor chip (the reference flow cell contained the capturing antibody as well). The carboxymethylated dextran (CMD) surface was activated by injecting a mixture of 200 mM EDC and 50 mM NHS for 7 min (10 μl/min). Subsequently, 30 μg/ml anti-human IgG antibody diluted in 10 mM Na acetate pH 5.0 was injected for 7 minutes (10 μl/min). The remaining unreacted esters were quenched with 1 M Ethanolamine pH 8.5 (7 min, […]). Surface densities of 17892-18376 RU were obtained for the antihuman IgG antibody.
Interaction analyses of antigen with reversibly captured antibody were performed using a Biacore™ T100 instrument (GE Healthcare Bio-Sciences (Piscataway, N.J.; U.S.A.)) at 25° C. in HBS analysis buffer (10 mM HEPES pH 7.4, 150 mM NaCl, 50 μM EDTA, 0.05% Tween 20). 37-38 RU of specific antibody was captured on a flow cell. […] The dissociation was recorded for 10 min at the same flow rate. […]
Data processing (e.g. blank run subtraction) and evaluation was performed by global fitting applying a bivalent analyte binding model using the Biacore T100 Evaluation Software version 2.0.3. The equilibrium dissociation constant KD1 was calculated by dividing kd1 with ka1.

[8] = target: T4, extracellular domain of human FGFR4 …; assay: ELISA, FGFR4 ECD (myc/His) captured by anti-His antibody, AP-coupled anti-human IgG F(ab') detection
Description: as §1

Row | Kd [1] [nM] | Elk1 luciferase reporter gene assay, % of control (+rhFGF 17), Fab at 0.1 µg/ml [2] | Elk1 luciferase reporter gene assay, % of control (+rhFGF 17), Fab at 1 µg/ml [2] | Elk1 luciferase reporter gene assay, % of control (+rhFGF 17), Fab at 10 µg/ml [2] | further results | Binder
1 | 1.6 |  |  |  |  | B1
2 |  | 70.4 % of control (+rhFGF 17) | 39.6 % of control (+rhFGF 17) | 32 % of control (+rhFGF 17) |  | B2
3 |  | 65.2 % of control (+rhFGF 17) | 22.5 % of control (+rhFGF 17) | 12.7 % of control (+rhFGF 17) |  | B3
4 | 0.15 |  |  |  |  | B4
5 | 0.85 |  |  |  |  | B5
6 |  |  |  |  | Kd [3]: 0.32 nM; binding result [4]: no binding | B6
7 | 0.46 |  |  |  |  | B7
8 |  | 112 % of control (+rhFGF 17) | 43.8 % of control (+rhFGF 17) | 26.6 % of control (+rhFGF 17) |  | B8
9 | 1.3 |  |  |  |  | B9
10 |  | 72.6 % of control (+rhFGF 17) | 33.1 % of control (+rhFGF 17) | 16.8 % of control (+rhFGF 17) |  | B10
11 |  |  |  |  | Kd [5]: 0.07 nM; IC50, NIH3T3 spheroid growth assay (CellTiter-Glo) [6]: 10.6 nM; Kd [7]: 0.12 nM; EC50 (read off the curve) [8]: ~0.08 nM | B11
12 |  | 116 % of control (+rhFGF 17) | 43.2 % of control (+rhFGF 17) | 16.3 % of control (+rhFGF 17) |  | B12
13 | 1.5 |  |  |  | Kd [5]: 0.08 nM | B13
14 |  | 82.2 % of control (+rhFGF 17) | 28.8 % of control (+rhFGF 17) | 20.1 % of control (+rhFGF 17) |  | B14
